The values that follow come from US11357817B2, “Immunoproteasome inhibitor” (The Regents of the University of California, priority 2017, dated 2022).

As a reminder, the IC50 is the concentration needed to halve the response being measured.

Assay [1] concerns the target Succinyl-Leu-Leu-Val-Tyr-aminocoumarin (Artificial Sequence).
Assay [2] has as its system 20S Plasmodium proteasome (Pf20S) β5 subunit. The experiment in a line: Proteasome activity assay, Pf20S β5 (suc-LLVY-AMC). Format: biochemical, Plasmodium falciparum. As to conditions: 150 nM inhibitor. As to the method: (§1) Asynchronous P. falciparum cultures were grown up to 4-5% parasitemia, in 300 mL of RPMI media at 5.0% hematocrit. Cultures were then transferred to 50 mL conical tubes, pelleted via centrifugation at 800 g for 5 min, and washed once with 1×PBS and pelleted again as above. The PBS was removed and lysis buffer (0.15% saponin in PBS) was added on ice in 10 pellet volumes. Upon lysis of red blood cells, indicated by a clear red supernatant, the lysed cultures were centrifuged at 3200×g for 12 minutes at 4° C. The supernatant was removed by aspiration and the cells were washed twice using chilled PBS in microcentrifuge tubes. The cell pellets were then incubated on ice for 1 hour with occasional vortexing in a buffer consisting of 20 mM Tris-HCl pH 7.5, 5 mM MgCl2, 1 mM DTT, 100 μM E-64 and 1 mM AEBSF. This sample was then subjected to 3 rounds of freezing (−80° C.) and thawing (37° C.) and centrifugation at 6000×g for 10 min. The supernatant containing soluble P. falciparum protein was quantified by the BCA method (Pierce).
P. falciparum proteasome was enriched by two-chromatographic steps reported previously (10). In brief, 10 mg of P. falciparum protein was concentrated to 1 mL using a 100 kDa centrifugal filter unit (Amicon) and loaded onto a 5 mL anion exchange HiTrap DEAE FF column (GE Healthcare). […] The AMC fluorophore release was monitored at Ex 340/Em 465 nm at 24° C. using a Synergy HTX multi-mode reader (Biotek). […] Proteins were eluted using 20 mM Tris-HCl pH 7.5, 100 mM NaCl, 10% glycerol and 1 mL fractions were collected, evaluated for protease activity and pooled.
To estimate the concentration of Pf20S in the final pooled sample, protein was denatured and loaded into a 4-12% Bis-Tris Plus gel (Thermo Fisher Scientific) beside 60 to 100 ng of human constitutive proteasome (Boston Biochem). […] For inhibition assays, inhibitor and substrate were added simultaneously to the enzyme and the rate of AMC release was determined from 60 to 120 minutes and compared to a DMSO control.

Assay [3] has as its system 20S Plasmodium proteasome (Pf20S) β1 subunit. The experiment in a line: Proteasome activity assay, Pf20S β1 (z-LLE-AMC). The format is biochemical, Plasmodium falciparum. As to conditions: 150 nM inhibitor. As to the method:
as §1, with “Cultures were then transferred to 50 mL conical tubes, pelleted via centrifugation at 800 g for 5 min, and washed once with 1×PBS and pelleted again as above.” left out
(§2) P. falciparum proteasome was enriched by two-chromatographic steps reported previously (10). […] The AMC fluorophore release was monitored at Ex 340/Em 465 nm at 24° C. using a Synergy HTX multi-mode reader (Biotek). […] Proteins were eluted using 20 mM Tris-HCl pH 7.5, 100 mM NaCl, 10% glycerol and 1 mL fractions were collected, evaluated for protease activity and pooled. […]

Assay [4] has as its system 20S Plasmodium proteasome (Pf20S) β2 subunit. The experiment in a line: Proteasome activity assay, Pf20S β2 (z-LRR-AMC). Format: biochemical. Conditions: 150 nM inhibitor. The protocol: as §1, with “Cultures were then transferred to 50 mL conical tubes, pelleted via centrifugation at 800 g for 5 min, and washed once with 1×PBS and pelleted again as above.” left out
as §2

The next assay addresses T1, c20S (Homo sapiens, UniProt P20618+P28074).
T1 construct: purchased Boston Biochem
The experiment in a line: Calculation of inhibition constants (inactivation kinetics), c20S. Format: biochemical. Conditions: c20S. The protocol: (§3) The rate of AMC release was calculated in the presence of serial dilution of each inhibitor. The rate of product formation were calculated at 30 min intervals for 4 hours, and normalized to activity DMSO control to calculate inactivation curves. Kobs values for each inhibitor concentration were calculated from inactivation curves, and inhibition constants KI and kinact were calculated by non-linear regression of Kobs and inhibitor concentration using GraphPad Prism 6 software.

For another assay, the target named is Pf20S (Plasmodium falciparum, UniProt A0A5K1K7U1+Q8IJT1). The experiment in a line: Calculation of inhibition constants (inactivation kinetics), Pf20S. As to conditions: Pf20S. Format: biochemical. The protocol:
as §3

Assay [5] relates to ABC16-Monster yeast cells. The experiment in a line: microbe, parasite or virus in culture. The format is cell-based, S. cerevisiae. As to conditions: Saccharomyces cerevisiae. The protocol: ABC16-Monster yeast cells (15) were inoculated into 5 ml of liquid YPD media and grown to saturation (OD600>1.0) overnight at 200 RPM in a shaking incubator at 30° C. Cultures were diluted to OD600 0.005 to log phase. 100 μl of yeast cells were added to a 96-well plate and incubated with compound starting with a concentration of 150 μM, followed by 1:2 serial dilutions. An initial reading of OD600 (t=0 hrs) was recorded using a Synergy HT spectrophotometer, and cells were grown for a period of 18 hours at 30° C. After incubation, plates were read at OD600. Cells grown in the absence of compound were used as a negative control. Percent growth was calculated using the formula Ab600treated/Ab600control×100
IC50 values were determined by first subtracting the OD600 values at t=0 from those of the final reading and then using Graphpad Prism to calculate nonlinear regression on log(inhibitor) vs. response with variable slope (four parameters).
Each selection was cultured under vigorous shaking until the culture reached saturation. […] Single colonies were isolated, and IC50 assays were performed to determine the degree of evolved resistance vs. that of the parental strain.

The next assay concerns Dd2 parasites. The experiment in a line: Artemisinin synergy, 72 hour SYBR green assay with co-treatment. Format: cell-based, Plasmodium falciparum. As to the method: Compound susceptibility was measured using the malaria SYBR Green I-based fluorescence assay (32). Asynchronous P. falciparum parasites (Dd2 strain) were cultured in standard conditions before being plated for the assays. Each compound was tested over 72 hours in technical duplicates on a twelve-point concentration curve prepared by three-fold dilution from 6.7 μM to 0.11 nM. At least three independent experiments were carried out for IC50 determination. Artemisinin and chloroquine were used as controls. IC50 values were obtained using normalized fluorescence intensity from SYBR green I and analyzed via non-linear variable slope four-parameter regression curve-fitting model in Prism 6 (GraphPad Software Inc).

The target of assay [6] is 20S Plasmodium proteasome (Pf20S), enriched from P. falciparum schizont lysate (Plasmodium falciparum).
In assay [7] the target is human constitutive 20S proteasome (human).
For assay [8], the target named is β5 subunit of the S. cerevisiae 20S proteasome (PRE2) with M45I (M120I in the pro-protein), lineage 2 (Saccharomyces cerevisiae).
Assay [9] deals with β5 subunit of the S. cerevisiae 20S proteasome (PRE2), wild type (Saccharomyces cerevisiae).
For assay [10], the target named is 20S Plasmodium proteasome (Pf20S), enriched from P. falciparum schizont lysate (Plasmodium falciparum). This is another data set of the same source.
Assay [11] deals with human constitutive 20S proteasome (human). This is another data set of the same source.
Assay [12] has the same target. The experiment in a line: inactivation kinetics of c20S, Suc-LLVY-AMC activity assay, non-linear regression of Kobs.
The target of assay [13] is 20S Plasmodium proteasome (Pf20S), enriched from P. falciparum schizont lysate (Plasmodium falciparum). The experiment in a line: inactivation kinetics of Pf20S, Suc-LLVY-AMC activity assay, non-linear regression of Kobs.

A value given as a limit tells only on which side of the number the result lay.

With “20S Plasmodium proteasome (Pf20S), enriched from P. falciparum schizont lysate (enzyme)”, the hydrolysis of suc-LLVY-AMC (AMC release) (fold of the c20S rate) in assay [1] is < 2. The compound further had a hydrolysis of z-LLE-AMC (AMC release) (fold lower than c20S) with z-LLE-AMC of 19. Besides, the hydrolysis of z-LRR-AMC (AMC release) (fold of the c20S rate) with z-LRR-AMC is < 2.

Regarding `CCCCCC(=O)N[C@H](C(=O)N[C@@H](CCS(C)(=O)=O)C(=O)N[C@@H](CC(C)C)C(=O)[C@@]1(C)CO1)C(C)C` [Carmaphycin B], the “Pf20S β5 activity reduced” value in assay [2] is 45%. Also, in assay [3], the “Pf20S β1 activity reduced” value turned out to be 16%. The “Pf20S β2 activity reduced” value in assay [4] was determined as 29%. The Ki was 0.375 µM on c20S and 0.223 µM on Pf20S. For the same compound, the IC50 in assay [5] (GM (parental ABC16-Monster strain)) was 24.3 µM; in assay [5] (resistant Lineage 1) it was > 150 µM; in assay [5] (resistant Lineage 2), 52.7 µM; in assay [5] (resistant Lineage 3), > 100 µM. Further, the “sensitization to ART” value in the assay on Dd2 parasites (co-treatment with ART and 0.5 nM of the compound) worked out at 2 fold; in the assay on Dd2 parasites (co-treatment with ART and 1 nM of the compound), 3 fold.

Take Carmaphycin B (peptide): the figures for the Kinact in assay [6] and in assay [7] were 0.000192 s⁻¹ and 0.00168 s⁻¹, respectively. For the same compound, the Kinact/KI turned out to be 864 M⁻¹ s⁻¹ in [6] and 4480 M⁻¹ s⁻¹ in [7]. In addition, in assay [8], the average IC50 (uM) of yeast growth, resistant lineage 2 is 52.7 µM. Also, the average IC50 (uM) of yeast growth, parental GM strain in assay [9] came to 24.3 µM. The same compound came in with an inhibition of β5, β1 and β2 activity at 150 nM inhibitor (% reduction of β5 activity) in [10] of 45. In assay [11], this compound came in with an inhibition of β5, β1 and β2 activity at 150 nM inhibitor (% inhibition of β5 activity) of 98. For the same compound, the Ki in assay [12] amounted to 0.375 µM; in [13], 0.223 µM.
